Measurements as given in patent publication US20050137135A1 (priority 2002, published 2005).
Square brackets hold non-standard residues; d marks the D form. Ends that are not written are not given here. Peptide text beside a SMILES is read from it. Ahx = NCCCCCC(=O)O

Assays:
[1] = target: T1, DPIV (dipeptidyl peptidase IV) (Sus scrofa, UniProt P22411); experiment: Determination of DPIV resistance by MALDI-TOF mass spectrometry; assay type: in vitro ADME; conditions: purified kidney DPIV, 0.04 M Tris buffer pH 7.6, up to 24 h, MALDI-TOF MS; read-out: half life after incubation with DP IV
T1 construct: The hydrolysis of peptide analogues by purified kidney DPIV was studied as described previously [12]; from tissue; host or cells: kidney
Description: (§1) The hydrolysis of peptide analogues by purified kidney DPIV was studied as described previously. […] Samples were removed from the incubation mixture and prepared for MALDI-TOF mass spectrometry, as described in Pauly, […]., Pederson, R. A., and Demuth, H. U.

[2] = target: T2, purified kidney DPIV (Sus scrofa, UniProt P22411); experiment: as above; assay type: in vitro ADME; conditions: for half-life: read-out: half life after incubation with DP IV
T2 construct: The hydrolysis of peptide analogues by purified kidney DPIV was studied as described previously [12]; from tissue; host or cells: kidney
Description: as §1

[3] = target: T3, rat pancreatic islet (wild type) GIP-receptor stably expressed on CHO-K1 cells (rat, UniProt P43219 19-455); experiment: cell-based or functional assay
T3 sequence (looked up): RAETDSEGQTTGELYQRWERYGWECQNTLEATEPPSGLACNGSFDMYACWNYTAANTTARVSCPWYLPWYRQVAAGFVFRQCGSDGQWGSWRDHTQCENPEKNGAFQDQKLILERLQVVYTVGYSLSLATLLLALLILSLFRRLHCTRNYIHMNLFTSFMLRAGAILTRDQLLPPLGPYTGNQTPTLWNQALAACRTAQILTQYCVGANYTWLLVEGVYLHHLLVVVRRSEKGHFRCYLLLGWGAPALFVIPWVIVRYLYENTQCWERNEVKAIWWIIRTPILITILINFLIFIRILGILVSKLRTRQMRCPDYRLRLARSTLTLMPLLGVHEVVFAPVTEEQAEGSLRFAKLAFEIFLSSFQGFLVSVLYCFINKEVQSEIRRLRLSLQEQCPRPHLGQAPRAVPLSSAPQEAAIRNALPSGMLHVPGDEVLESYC

[4] = target: T3, rat pancreatic islet (wild type) …; experiment: competition with 125I-GIP on CHO-K1 cells transfected with rat GIP receptor
Description: (§2) Cells were cultured in DMEM/F12, supplemented with 10% newborn calf serum, 50 units/ml penicillin G, and 50 μg/ml streptomycin (Culture media and antibiotics from Gibco BRL, Life Technologies). Cells were grown in 75 cm² flasks until 80-90% confluent, when they were split and seeded onto 24 well plates at a density of 50,000 cells/well. Experiments were carried out 48 h later.
(§3) Binding studies using ¹²⁵I-labeled spGIP₁₋₄₂, purified by high performance liquid chromatography (HPLC), were performed essentially as described previously-[21]. wtGIP-R1 Cells (1-5×10⁵/well) were washed twice at 4° C. in binding buffer (BB), consisting of DMEM/F12 (GIBCO), 15 mM HEPES, 0.1% bovine serum albumin (BSA), 1% Trasylol (aprotinin; Bayer), pH 7.4. They were incubated for 12-16 h at 4° C. with ¹²⁵I-spGIP (50,000 cpm) in the presence or absence of unlabeled GIP₁₋₄₂ or analogue. Following incubation, cells were washed twice with ice cold buffer, solubilized with 0.1 M NaOH (1 ml), and transferred to culture tubes for counting of cell-associated radioactivity. Nonspecific binding was defined as that measured in the presence of 1 μM GIP₁₋₄₂ or GIP₁₋₃₀, and specific binding expressed as % of binding in the absence of competitor (% B/Bo).

[5] = target: T3, rat pancreatic islet (wild type) …; experiment: displacement of 125I-GIP from CHO-K1 cells transfected with rat GIP receptor, 20 µM peptide
Description: as §2, §3

[6] = purified kidney DPIV, 0.04 M Tris buffer pH 7.6, up to 24 h, MALDI-TOF MS

T2 sequence (P22411 whole entry): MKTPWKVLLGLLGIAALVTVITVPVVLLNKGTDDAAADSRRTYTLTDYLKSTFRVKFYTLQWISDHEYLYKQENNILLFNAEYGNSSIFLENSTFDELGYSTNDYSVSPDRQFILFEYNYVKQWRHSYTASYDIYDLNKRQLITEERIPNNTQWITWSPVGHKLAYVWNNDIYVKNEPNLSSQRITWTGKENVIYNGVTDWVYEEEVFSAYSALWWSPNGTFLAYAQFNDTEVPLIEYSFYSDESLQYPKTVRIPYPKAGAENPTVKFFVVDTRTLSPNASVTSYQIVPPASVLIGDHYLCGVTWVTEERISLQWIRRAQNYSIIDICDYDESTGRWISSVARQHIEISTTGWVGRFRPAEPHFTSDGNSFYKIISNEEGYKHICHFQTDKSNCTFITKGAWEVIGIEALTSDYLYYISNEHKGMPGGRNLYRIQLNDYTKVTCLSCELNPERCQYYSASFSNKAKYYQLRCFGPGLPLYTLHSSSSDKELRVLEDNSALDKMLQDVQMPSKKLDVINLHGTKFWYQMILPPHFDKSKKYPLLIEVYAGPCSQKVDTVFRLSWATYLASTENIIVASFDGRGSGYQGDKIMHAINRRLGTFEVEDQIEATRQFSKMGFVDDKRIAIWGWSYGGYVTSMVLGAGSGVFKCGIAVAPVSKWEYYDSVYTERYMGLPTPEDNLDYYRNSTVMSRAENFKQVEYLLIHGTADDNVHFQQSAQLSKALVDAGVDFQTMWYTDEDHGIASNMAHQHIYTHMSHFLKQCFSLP
T1 sequence (P22411 whole entry): as above

YVEGTFISDYSIAMDKIRQQDFVNWLLAQK-NH2 [Val^2-GIP1-30a]
half-life [1]: 298 ± 92.2 min

YSEGTF-NH2 [Ser^2-GIP1-6a]
half-life [2, 6]: 79 ± 12.2 min

CC[C@H](C)[C@H](NC(=O)[C@H](CO)NC(=O)[C@H](Cc1ccc(O)cc1)NC(=O)[C@H](CC(=O)O)NC(=O)[C@H](CO)NC(=O)[C@@H](NC(=O)[C@H](Cc1ccccc1)NC(=O)[C@@H](NC(=O)CNC(=O)[C@@H](CCC(=O)O)NC(=O)[C@H](C)NC(=O)[C@@H](N)Cc1ccc(O)cc1)[C@@H](C)O)[C@@H](C)CC)C(=O)N[C@@H](C)C(=O)N[C@@H](CCSC)C(=O)N[C@@H](CC(=O)O)C(=O)N[C@@H](CCCCN)C(=O)N[C@H](C(=O)N[C@@H](CCCNC(=N)N)C(=O)N[C@@H](CCC(N)=O)C(=O)N[C@@H](CCC(N)=O)C(=O)N[C@@H](CC(=O)O)C(=O)N[C@@H](Cc1ccccc1)C(=O)N[C@H](C(=O)N[C@@H](CC(N)=O)C(=O)N[C@@H](Cc1c[nH]c2ccccc12)C(=O)N[C@@H](CC(C)C)C(=O)N[C@@H](CC(C)C)C(=O)N[C@@H](C)C(=O)N[C@@H](CCC(N)=O)C(=O)N[C@@H](CCCCN)C(N)=O)C(C)C)[C@@H](C)CC [D-Glu^3-GIP1-30] (H-YA[dE]GTFISDYSIAMDKIRQQDFVNWLLAQK-NH2; N-terminus and C-terminus assumed)
half-life [1]: 40.3 ± 4.8 min

Tyr-Ala-Ψ(CH2NH2)-Glu-Gly-Thr-Phe-Ile-Ser-Asp-Tyr-Ser-Ile-Ala-Met (EGTFISDYSIAM; not fully specified; N-terminal Tyr-Ala reduced bond, C-amide; printed: Glu-Gly-Thr-Phe-Ile-Ser-Asp-Tyr-Ser-Ile-Ala-Met) [YAψ(CH2NH)-GIP3-14a, GIP1-14 analogue with a reduced peptide bond]
half life after incubation with DP IV ([2]; pH 7.6): stable

CC[C@H](C)[C@H](NC(=O)[C@H](CO)NC(=O)[C@H](Cc1ccc(O)cc1)NC(=O)[C@H](CC(=O)O)NC(=O)[C@H](CO)NC(=O)[C@@H](NC(=O)[C@H](Cc1ccccc1)NC(=O)[C@@H](NC(=O)CNC(=O)[C@H](CCC(=O)O)NC(=O)[C@@H](C)NC(=O)[C@@H](N)Cc1ccc(O)cc1)[C@@H](C)O)[C@@H](C)CC)C(=O)N[C@@H](C)C(=O)N[C@@H](CCSC)C(=O)O [D-Ala^2-GIP1-14]
half life after incubation with DP IV [2, 6]: stable

YAPGTFISDYSIAM [Pro^3-GIP1-14]
half life after incubation with DP IV [2, 6]: stable

C[C@@H](NC(=O)[C@@H](N)Cc1ccc(O)cc1)C(=O)N[C@@H](CCC(=O)O)C(=O)NCC(=O)N[C@H](C(=O)N[C@@H](Cc1ccccc1)C(N)=O)[C@@H](C)O [D-Ala^2-GIP1-6a] (H-Y[dA]EGTF-NH2)
half life after incubation with DP IV [2, 6]: stable

YVEGTF-NH2 [Val^2-GIP1-6a]
half life after incubation with DP IV [2, 6]: Not detectable

YGEGTF-NH2 [Gly^2-GIP1-6a]
half life after incubation with DP IV [2, 6]: Not detectable^b

D-Ala^2-GIP1-30a: GIP1-30 analog, N-terminal sequence Tyr-D-Ala-Glu-Gly (Y[dA]EGTFISDYSIAMDKIRQQDFVNWLLAQK-NH2)
half life after incubation with DP IV ([2]; pH 7.6): stable

Tyr-Ala-ψ(CH2NH)-Glu-Gly-Thr-Phe-Ile-Ser-Asp-Tyr-Ser-Ile-Ala-Met-Asp-Lys-Ile-His-Gln-Gln-Asp-Phe-Val-Asn-Trp-Leu-Leu-Ala-Gln-Lys [YAψ(CH2NH)-GIP3-30a]
half life after incubation with DP IV ([2]; pH 7.6): stable

CC[C@H](C)[C@H](NC(=O)[C@H](CO)NC(=O)[C@H](Cc1ccc(O)cc1)NC(=O)[C@H](CC(=O)O)NC(=O)[C@H](CO)NC(=O)[C@@H](NC(=O)[C@H](Cc1ccccc1)NC(=O)[C@@H](NC(=O)CNC(=O)[C@H](CCC(=O)O)NC(=O)[C@H](C)NC(=O)[C@@H](N)Cc1ccc(O)cc1)[C@@H](C)O)[C@@H](C)CC)C(=O)N[C@@H](C)C(=O)N[C@@H](CCSC)C(=O)N[C@@H](CC(=O)O)C(=O)O [GIP1-15]
half-life [2, 6]: 35 ± 5.2 min

YAPGTF-NH2 [Pro3-GIP1-6a]
half life after incubation with DP IV [2, 6]: stable

CC[C@H](C)[C@H](NC(=O)[C@H](CO)NC(=O)[C@H](Cc1ccc(O)cc1)NC(=O)[C@H](CC(=O)O)NC(=O)[C@H](CO)NC(=O)[C@@H](NC(=O)[C@H](Cc1ccccc1)NC(=O)[C@@H](NC(=O)CNC(=O)[C@H](CCC(=O)O)NC(=O)[C@H](C)NC(=O)[C@@H](N)Cc1ccc(O)cc1)[C@@H](C)O)[C@@H](C)CC)C(=O)N[C@@H](C)C(=O)O [GIP1-13]
half-life [2, 6]: 11.5 ± 2.5 min

B1: GIP(1-14)(Ahx)2(19-30)NH2 (peptide, UniProt P09681 52-65, looked up)
peptide: YAEGTFISDYSIAM[Ahx][Ahx]QQDFVNWLLAQK-NH2
modifications: N-terminus assumed
SMILES: CC[C@H](C)[C@H](NC(=O)[C@H](CO)NC(=O)[C@H](Cc1ccc(O)cc1)NC(=O)[C@H](CC(=O)O)NC(=O)[C@H](CO)NC(=O)[C@@H](NC(=O)[C@H](Cc1ccccc1)NC(=O)[C@@H](NC(=O)CNC(=O)[C@H](CCC(=O)O)NC(=O)[C@H](C)NC(=O)[C@@H](N)Cc1ccc(O)cc1)[C@@H](C)O)[C@@H](C)CC)C(=O)N[C@@H](C)C(=O)N[C@@H](CCSC)C(=O)NCCCCCC(=O)NCCCCCC(=O)N[C@@H](CCC(N)=O)C(=O)N[C@@H](CCC(N)=O)C(=O)N[C@@H](CC(=O)O)C(=O)N[C@@H](Cc1ccccc1)C(=O)N[C@H](C(=O)N[C@@H](CC(N)=O)C(=O)N[C@@H](Cc1c[nH]c2ccccc12)C(=O)N[C@@H](CC(C)C)C(=O)N[C@@H](CC(C)C)C(=O)N[C@@H](C)C(=O)N[C@@H](CCC(N)=O)C(=O)N[C@@H](CCCCN)C(N)=O)C(C)C
notes: range 52-65
Max. cAMP (Fold Basal) [3]: 95.9 fold basal | cAMP Production EC50 [3]: 2.51 µM | IC50 [4]: 2770 nM | % Displacement at 20 µM [5]: 85.8%

B2: GIP(1-14)(Ahx)1(19-30)NH2 (peptide, UniProt P09681 52-65, looked up)
peptide: YAEGTFISDYSIAM[Ahx]QQDFVNWLLAQK-NH2
modifications: N-terminus assumed
SMILES: CC[C@H](C)[C@H](NC(=O)[C@H](CO)NC(=O)[C@H](Cc1ccc(O)cc1)NC(=O)[C@H](CC(=O)O)NC(=O)[C@H](CO)NC(=O)[C@@H](NC(=O)[C@H](Cc1ccccc1)NC(=O)[C@@H](NC(=O)CNC(=O)[C@H](CCC(=O)O)NC(=O)[C@H](C)NC(=O)[C@@H](N)Cc1ccc(O)cc1)[C@@H](C)O)[C@@H](C)CC)C(=O)N[C@@H](C)C(=O)N[C@@H](CCSC)C(=O)NCCCCCC(=O)N[C@@H](CCC(N)=O)C(=O)N[C@@H](CCC(N)=O)C(=O)N[C@@H](CC(=O)O)C(=O)N[C@@H](Cc1ccccc1)C(=O)N[C@H](C(=O)N[C@@H](CC(N)=O)C(=O)N[C@@H](Cc1c[nH]c2ccccc12)C(=O)N[C@@H](CC(C)C)C(=O)N[C@@H](CC(C)C)C(=O)N[C@@H](C)C(=O)N[C@@H](CCC(N)=O)C(=O)N[C@@H](CCCCN)C(N)=O)C(C)C
notes: range 52-65
Max. cAMP (Fold Basal) [3]: 102 fold basal | cAMP Production EC50 [3]: 1.41 µM | IC50 [4]: 2710 nM | % Displacement at 20 µM [5]: 86.1%

B3: GIP(1-14)(Ahx)3(19-30)NH2 (peptide, UniProt P09681 52-65, looked up)
peptide: YAEGTFISDYSIAM[Ahx][Ahx][Ahx]QQDFVNWLLAQK-NH2
modifications: N-terminus assumed
SMILES: CC[C@H](C)[C@H](NC(=O)[C@H](CO)NC(=O)[C@H](Cc1ccc(O)cc1)NC(=O)[C@H](CC(=O)O)NC(=O)[C@H](CO)NC(=O)[C@@H](NC(=O)[C@H](Cc1ccccc1)NC(=O)[C@@H](NC(=O)CNC(=O)[C@H](CCC(=O)O)NC(=O)[C@H](C)NC(=O)[C@@H](N)Cc1ccc(O)cc1)[C@@H](C)O)[C@@H](C)CC)C(=O)N[C@@H](C)C(=O)N[C@@H](CCSC)C(=O)NCCCCCC(=O)NCCCCCC(=O)NCCCCCC(=O)N[C@@H](CCC(N)=O)C(=O)N[C@@H](CCC(N)=O)C(=O)N[C@@H](CC(=O)O)C(=O)N[C@@H](Cc1ccccc1)C(=O)N[C@H](C(=O)N[C@@H](CC(N)=O)C(=O)N[C@@H](Cc1c[nH]c2ccccc12)C(=O)N[C@@H](CC(C)C)C(=O)N[C@@H](CC(C)C)C(=O)N[C@@H](C)C(=O)N[C@@H](CCC(N)=O)C(=O)N[C@@H](CCCCN)C(N)=O)C(C)C
notes: range 52-65; also called GlP(1-14)(Ahx)3(19-30)NH2
Max. cAMP (Fold Basal) [3]: 49.5 fold basal | cAMP Production EC50 [3]: ~20 µM | IC50 [4]: 3210 nM | % Displacement at 20 µM [5]: 82.7%
